Measurements: paper PMC2233751 (The Journal of General Physiology, 2001)

Biological target: actin filaments (UniProt P68135 1-377)
Assay: co-sedimentation

B1: myosin V 1IQ monomer (domain or fragment)
chain: MAASELYTKYARVWIPDPEEVWKSAELLKDYKPGDKVLQLRLEEGKDLEYCLDPKTKELPPLRNPDILVGENDLTALSYLHEPAVLHNLKVRFIDSKLIYTYCGIVLVAINPYEQLPIYGEDIINAYSGQNMGDMDPHIFAVAEEAYKQMARDERNQSIIVSGESGAGKTVSAKYAMRYFATVSGSASEANVEEKVLASNPIMESIGNAKTTRNDNSSRFGKYIEIGFDKRYRIIGANMRTYLLEKSRVVFQAEEERNYHIFYQLCASAALPEFKTLRLGNANYFHYTKQGGSPVIDGIDDAKEMVNTRQACTLLGISDSYQMGIFRILAGILHLGNVEFASRDSDSCAIPPKHDPLTIFCDLMGVDYEEMAHWLCHRKLATATETYIKPISKLHAINARDALAKHIYANLFNWIVDHVNKALHSTVKQHSFIGVLDIYGFETFEINSFEQFCINYANEKLQQQFNMHVFKLEQEEYMKEQIPWTLIDFYDNQPCINLIEAKMGVLDLLDEECKMPKGSDDTWAQKLYNTHLNKCALFEKPRLSNKAFIIKHFADKVEYQCEGFLEKNKDTVYEEQIKVLKSSKKFKLLPELFQDEEKAISPTSATPSGRVPLSRTPVKPAKARPGQTSKEHKKTVGHQFRNSLHLLMETLNATTPHYVRCIKPNDFKFPFTFDEKRAVQQLRACGVLETIRISAAGFPSRWTYQEFFSRYRVLMKQKDVLSDRKQTCKNVLEKLILDKDKYQFGKTKIFFRAGQVAYLEKIRADKLRAACIRIQKTIRGWLMRKKYMRMRR
- Kd: 10 µM
